From paper PMC2843729

Molecular target: mouse CNPase catalytic domain containing the C-terminal tail (construct 6-2) (mouse)
Assay: SEC; HiLoad 16/60 Superdex 200, after Ni-TED purification and TEV cleavage; dimer to monomers

stoichiometry N: 2
Substance: mouse CNPase catalytic domain containing the C-terminal tail (construct 6-2) (domain or fragment)
